Measurements reported in patent US20070026008A1.

Target: mouse B6 class I antigens (mouse)
Experiment: Binding of 9-mer peptides within p117-139 to mouse B6 (H-2^b) class I; RMA-S cell MHC stabilisation, flow cytometry

Q: Which Binding Affinity to Mouse MHC Class I does the source give for SQASSGQAR [WT1 peptide P118-126 (…)] here?
A: 2%

Q: ASSGQARMF [WT1 peptide P120-128 (…)] was tested. Which Binding Affinity to Mouse MHC Class I did it give?
A: 1%

Q: For APYLPSCLE [WT1 peptide P131-139 (…)], which Binding Affinity to Mouse MHC Class I is on record?
A: 1%

Q: Which Binding Affinity to Mouse MHC Class I does the source give for PNAPYLPSC [WT1 peptide P129-137 (…)] here?
A: 1%

Q: How did the Binding Affinity to Mouse MHC Class I turn out when MFPNAPYLP [WT1 peptide P127-135 (…)] was run?
A: 2%

Q: How did the Binding Affinity to Mouse MHC Class I turn out when FPNAPYLPS [WT1 peptide P128-136 (…)] was run?
A: 1%

Q: With PSQASSGQA [WT1 peptide P117-125 (…)] as the binder, how does the Binding Affinity to Mouse MHC Class I read?
A: 2%

Q: How did the Binding Affinity to Mouse MHC Class I turn out when QARMFPNAP [WT1 peptide P124-132 (…)] was run?
A: 1%

Q: How did the Binding Affinity to Mouse MHC Class I turn out when QASSGQARM [WT1 peptide P119-127 (…)] was run?
A: 2%

Q: Which Binding Affinity to Mouse MHC Class I does the source give for SSGQARMFP [WT1 peptide P121-129 (…)] here?
A: 1%

Q: Which Binding Affinity to Mouse MHC Class I does the source give for NAPYLPSCL [WT1 peptide P130-138 (…)] here?
A: 79%

Q: For ARMFPNAPY [WT1 peptide P125-133 (…)], which Binding Affinity to Mouse MHC Class I is on record?
A: 1%

Target: mouse B6 class I antigens (mouse)
Experiment: RMA-S cell MHC stabilisation, peptide 25 ug/ml, flow cytometry with FITC anti-D^b or anti-K^b; % increase of MFI over medium alone

Q: How did the Binding Affinity to Mouse MHC Class I turn out when ALLPAVPSL [WT1 peptide human p10-18 (…)] was run?
A: 2.2%

Q: Which Binding Affinity to Mouse MHC Class I does the source give for CMTWNQMNL [WT1 peptide p235-243 (…)] here?
A: 33.6%

Q: For NLYQMTSQL [WT1 peptide p225-233 (…)], which Binding Affinity to Mouse MHC Class I is on record?
A: 5.8%

Q: NQMNLGATL [WT1 peptide p239-247 (…)] was tested. Which Binding Affinity to Mouse MHC Class I did it give?
A: 1%

Q: For YSSDNLYQM [WT1 peptide p221-229 (…)], which Binding Affinity to Mouse MHC Class I is on record?
A: 0.8%

Q: For GCNKRYFKL [WT1 peptide p329-337 (…)], which Binding Affinity to Mouse MHC Class I is on record?
A: 1.2%

Q: SCLESQPAI [WT1 peptide human p136-144 (…)] was tested. Which Binding Affinity to Mouse MHC Class I did it give?
A: 52%

Q: Which Binding Affinity to Mouse MHC Class I does the source give for QMTSQLECM [WT1 peptide p228-236 (…)] here?
A: 1.2%
